Target: SeMet-substituted C. elegans ZYG-1 cryptic polo-box (CPB) domain (residues 338-564) (C. elegans)
Test: SEC-MALS

stoichiometry N: 2
Substance: SeMet-substituted C. elegans ZYG-1 cryptic polo-box (CPB) domain (residues 338-564) (domain or fragment)

Reference: article PMC4188077
